{"source": "patent US20020081638", "proteins": {"B1": {"name": "(myc)3-Nchromo (aa 3-118), C-terminally truncated human SUV39H1 (protein)", "chain": "ENLKGCSVCCKSSWNQLQDLCRLAKLSCPALGISKRNLYDFEVEYLCDYKKIREQEYYLVKWRGYPDSESTWEPRQNLKCVRILKQFHKDLERELLRRHHRSKTPRHLDPSLANYL"}, "B2": {"name": "GST-Suv39h1(7-221), murine (protein)", "chain": "GCSVCCKSSWNQLQDLCRLAKLSCPALGVSKKNLYDFEVEYLCDYKKIREQEYYLVKWRGYPDSENTWEPRQNLKCIRVLKQFHKDLERELVRRHRRSKPPRHLDPNLANYLVQKAKQRRALQRWEQELNAKRSHLGRITVENEVDLDGPPRSFVYINEYRVGEGITLNQVAVGCECQDCLLAPTGGCCPGASLHKFAYNDQGQVRLKAGQPIYE"}, "B3": {"name": "GST-Suv39h1(82-412), murine (protein)", "chain": "CIRVLKQFHKDLERELVRRHRRSKPPRHLDPNLANYLVQKAKQRRALQRWEQELNAKRSHLGRITVENEVDLDGPPRSFVYINEYRVGEGITLNQVAVGCECQDCLLAPTGGCCPGASLHKFAYNDQGQVRLKAGQPIYECNSRCCCGYDCPNRVVQKGIRYDLCIFRTNDGRGWGVRTLEKIRKNSFVMEYVGEIITSEEAERRGQIYDRQGATYLFDLDYVEDVYTVDAAYYGNISHFVNHSCDPNLQVYNVFIDNLDERLPRIAFFATRTIWAGEELTFDYNMQVDPVDMESTRMDSNFGLAGLPGSPKKRVRIECKCGTTACRKYLF"}, "B4": {"name": "GST-CLR4(127-490), S. pombe (protein)", "chain": "KQSTALTTNDTSIILDDSLHTNSKKLGKTRNEVKEESQKRELVSNSIKEATSPKTSSILTKPRNPSKLDSYTHLSFYEKRELFRKKLREIEGPEVTLVNEVDDEPCPSLDFQFISQYRLTQGVIPPDPNFQSGCNCSSLGGCDLNNPSRCECLDDLDEPTHFAYDAQGRVRADTGAVIYECNSFCSCSMECPNRVVQRGRTLPLEIFKTKEKGWGVRSLRFAPAGTFITCYLGEVITSAEAAKRDKNYDDDGITYLFDLDMFDDASEYTVDAQNYGDVSRFFNHSCSPNIAIYSAVRNHGFRTIYDLAFFAIKDIQPLEELTFDYAGAKDFSPVQSQKSQQNRISKLRRQCKCGSANCRGWLFG"}, "B5": {"name": "(myc)3-SUV39H1 (aa 3-412), triple myc-tagged full-length human SUV39H1 (protein)", "chain": "ENLKGCSVCCKSSWNQLQDLCRLAKLSCPALGISKRNLYDFEVEYLCDYKKIREQEYYLVKWRGYPDSESTWEPRQNLKCVRILKQFHKDLERELLRRHHRSKTPRHLDPSLANYLVQKAKQRRALRRWEQELNAKRSHLGRITVENEVDLDGPPRAFVYINEYRVGEGITLNQVAVGCECQDCLWAPTGGCCPGASLHKFAYNDQGQVRLRAGLPIYECNSRCRCGYDCPNRVVQKGIRYDLCIFRTDDGRGWGVRTLEKIRKNSFVMEYVGEIITSEEAERRGQIYDRQGATYLFDLDYVEDVYTVDAAYYGNISHFVNHSCDPNLQVYNVFIDNLDERLPRIAFFATRTIRAGEELTFDYNMQVDPVDMESTRMDSNFGLAGLPGSPKKRVRIECKCGTESCRKYLF"}}, "key": {"[1]": {"molecular_target": "free histones (mixture of H1, H3, H2B, H2A and H4; Boehringer Mannheim)"}, "[2]": {"molecular_target": "wild-type N-terminus of human histone H3 peptide (aa 1-20)"}, "[3]": {"molecular_target": "N-terminus of rat macro-H2A peptide"}, "[4]": {"molecular_target": "N-terminus of human CENP-A peptide"}, "[5]": {"molecular_target": "mutant H3 (K9L) N-terminal peptide"}}, "note": "“And” between values parts separate entries of the source, which are not always exact repeats. Equal values may be shown once."}
{"protein": "B1", "values": [{"measurement": "in vitro HMTase assay, fluorography of 14C-methyl label", "setting": "[1]", "result": "no signals were detected with extracts from a HeLa cell line that expresses only the N-terminal third of SUV39H1 (aa 3-118)"}]}
{"protein": "B2", "values": [{"measurement": "in vitro HMTase assay, fluorography of 14C-methyl label", "setting": "[1]", "result": "a purified GST-product comprising aa 7-221 proved negative, even at higher protein concentrations"}]}
{"protein": "B3", "values": [{"measurement": "3H-incorporation of individual amino acids by microsequencing of the in vitro methylated peptide", "setting": "[2]", "result": "The results confirmed selective transfer of methyl-label to lysine 9"}, {"measurement": "in vitro methylation of peptides, SDS-PAGE and fluorography", "setting": "[2]", "result": "These in vitro assays revealed selective methylation of the wild-type H3 peptide"}, {"measurement": "in vitro methylation of individual histones, fluorography", "setting": "histone H2A", "result": "no signals are detected with H2A, H2B or H4"}, {"measurement": "in vitro methylation of peptides, SDS-PAGE and fluorography", "setting": "[3]", "result": "no signals were detected with the CENP-A or macroH2A peptides, or with insulin"}, {"measurement": "in vitro methylation of individual histones, fluorography", "setting": "histone H4", "result": "no signals are detected with H2A, H2B or H4"}, {"measurement": "in vitro methylation of peptides, SDS-PAGE and fluorography", "setting": "[4]", "result": "no signals were detected with the CENP-A or macroH2A peptides, or with insulin"}, {"measurement": "in vitro methylation of peptides, SDS-PAGE and fluorography", "setting": "insulin (Sigma)", "result": "no signals were detected with the CENP-A or macroH2A peptides, or with insulin"}, {"measurement": "in vitro methylation of individual histones, fluorography", "setting": "histone H1", "result": "A weak signal is present if H1 was used as the sole substrate"}, {"measurement": "in vitro HMTase assay, fluorography of 14C-methyl label", "setting": "[1]", "result": "A purified GST-product comprising aa 82-412 maintained HMTase activity (although at a reduced level as compared to transfected SUV39H1)"}, {"measurement": "in vitro methylation of peptides, SDS-PAGE and fluorography", "setting": "[5]", "result": "the mutated H3 (K9L) peptide was not a substrate"}, {"measurement": "in vitro methylation of individual histones, fluorography", "setting": "histone H2B", "result": "no signals are detected with H2A, H2B or H4"}, {"measurement": "in vitro methylation of individual histones, fluorography", "setting": "histone H3", "result": "H3 is specifically methylated by GST-Suv39h1(82-412)"}]}
{"protein": "B4", "values": [{"measurement": "in vitro HMTase assay with free histones, activity against recombinant SUV39H1 product", "setting": "[1]", "result": "3 fold and 5 fold"}]}
{"protein": "B5", "values": [{"measurement": "in vitro HMTase assay, fluorography of 14C-methyl label", "setting": "histone H3", "result": "indicating selective transfer of the methyl-label to H3"}]}
